This is an account of results in PMC7368063, “An FGF15/19-TFEB regulatory loop controls hepatic cholesterol and bile acid homeostasis”.

The target of this series is TFEB (rhTFEB) (human, UniProt P19484 1-476). The series is described as follows: EMSA; EMSA kit with SYBR green (Thermo Fisher), 5 pmol annealed probe, 200 ng rhTFEB; buffer, salt, pH and temperature not stated. The note with it: protein: commercial; chain copies: 2. On the technique in general: In EMSA bound probe runs differently from free probe, usually more slowly.
TFEB (rhTFEB), sequence (P19484 whole entry): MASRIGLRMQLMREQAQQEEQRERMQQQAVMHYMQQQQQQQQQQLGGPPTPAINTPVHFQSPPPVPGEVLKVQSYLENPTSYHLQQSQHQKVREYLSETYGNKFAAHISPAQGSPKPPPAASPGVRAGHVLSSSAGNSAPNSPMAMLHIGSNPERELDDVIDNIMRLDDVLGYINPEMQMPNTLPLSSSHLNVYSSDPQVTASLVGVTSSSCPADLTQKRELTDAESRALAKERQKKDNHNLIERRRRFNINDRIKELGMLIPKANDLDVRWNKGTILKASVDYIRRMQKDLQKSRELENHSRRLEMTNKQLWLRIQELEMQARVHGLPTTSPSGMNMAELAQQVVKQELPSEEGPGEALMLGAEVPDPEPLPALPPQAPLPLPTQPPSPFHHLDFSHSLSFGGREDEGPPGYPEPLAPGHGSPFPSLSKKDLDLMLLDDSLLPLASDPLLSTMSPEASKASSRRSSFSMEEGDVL

B1: NPC2 CLEAR probe (positive control) (dsDNA)
DNA 1: GCGCGGGCGGGCCTCAGCTGTGGTTACTGGTGACAGGTCGCCTGA
DNA 2: TCAGGCGACCTGTCACCAGTAACCACAGCTGAGGCCCGCCCGCGC
As to B1, the binding result is listed as “binds”.
